Source: publication PMC6692024

Legend:
[1] = tested on: GST-DEK PBD2-Mut2 (Homo sapiens); experiment: EMSA (agarose); settings: only slightly reduced; indistinguishable from WT at higher molar ratios; 20 mM Hepes-KOH pH 7.6, 100 mM NaCl, 10 mM NaHSO3, 1 mM EDTA, 1 ug/ml BSA; 30 ul, 1 h at 37 C; 0.6% agarose gel in TBE. PAR overlay assays (poly(ADP-ribose) …); scale: DEK:DNA molar ratio at first detectable shift
[2] = tested on: GST-DEK WT (Homo sapiens); experiment: EMSA (agarose); settings: 20 mM Hepes-KOH pH 7.6, 100 mM NaCl, 10 mM NaHSO3, 1 mM EDTA, 1 ug/ml BSA; 30 ul, 1 h at 37 C; 0.6% agarose gel in TBE. PAR overlay assays (poly(ADP-ribose) …); scale: DEK:DNA molar ratio at first detectable shift

## plasmid DNA (unnamed)
[1]
  binding signal: 112
[2]
  binding signal: 84
